The source of these data is patent publication US20170281807A1 (UNIVERSITY OF TENNESSEE RESEARCH FOUNDATION, published 2017).

B1: peptide p66 (11-1F4 peptope) (peptide)
peptide: KAQKAQAKQAKQAQKAQKAQAKQAKQAQKAQKAQAKQAKQSVTVVTKHYAAFPENLLI
modifications: also: 125I-labeled in pull-down and in vivo work
notes: also called peptope p66

The target of assay [1] is BSA (UniProt P02769 25-607). Description: EuLISA, BSA-blocked wells without fibrils, p66 then 11-1F4.
The target in assay [2] is T1, synthetic Aβ(1-40) amyloid fibrils (UniProt P05067 672-711).
T1 construct: domain: Aβ(1-40); Fibrillar aggregate; 1-40 counts on the Aβ peptide, not on the precursor
T1 sequence (P05067 672-711 limits assumed): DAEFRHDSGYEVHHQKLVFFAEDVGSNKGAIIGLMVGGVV
Description: EuLISA, fibrils coated, p66 added and washed, detected by 11-1F4.

Assay [3] has as its target B1. Description: EuLISA, peptide coated, 11-1F4 titrated from 100 nM.

Ends that are not written are not given here.

Sequence of BSA (P02769 25-607 limits assumed): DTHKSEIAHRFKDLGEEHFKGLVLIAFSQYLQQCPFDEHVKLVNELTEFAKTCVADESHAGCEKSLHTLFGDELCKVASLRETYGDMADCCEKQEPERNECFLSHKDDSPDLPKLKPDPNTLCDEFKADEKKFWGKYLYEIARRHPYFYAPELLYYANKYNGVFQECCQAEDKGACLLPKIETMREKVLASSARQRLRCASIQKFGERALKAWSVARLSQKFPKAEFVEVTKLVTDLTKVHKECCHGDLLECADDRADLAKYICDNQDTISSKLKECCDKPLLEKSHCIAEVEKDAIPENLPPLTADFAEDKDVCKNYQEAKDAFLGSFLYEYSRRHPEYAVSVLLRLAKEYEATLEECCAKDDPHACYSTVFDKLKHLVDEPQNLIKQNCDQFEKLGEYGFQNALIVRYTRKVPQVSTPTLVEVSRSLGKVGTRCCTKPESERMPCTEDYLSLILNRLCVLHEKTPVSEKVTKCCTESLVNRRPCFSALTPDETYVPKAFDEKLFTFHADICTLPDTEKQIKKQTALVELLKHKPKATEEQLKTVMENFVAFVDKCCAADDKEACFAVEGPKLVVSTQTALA

Consider B1, for which the binding result is on record as “no binding (tested: 100 µl of a 0.83 mM stock solution)” in assay [1] and “binds” in assay [2].

B2: murine 11-1F4 monoclonal antibody (antibody, V domains shown)
VH: QVQLKESGPGLVAPSQSLSITCTVSGFSLSSYGVSWVRQPPGKGLEWLGVIWGDGSTNYHPNLMSRLSISKDISKSQVLFKLNSLQTDDTATYYCVTLDYWGQGTSVTVSS
VL: DVVMTQTPLSLPVSLGDQASISCRSSQSLVHRNGNTYLHWYLQKPGQSPKLLIYKVSNRFSGVPDRFSGSGSGTDFTLKISRVEAEDLGLYFCFQTTYVPNTFGGGTKLEIK
For B2, in assay [3], the EC50 (commonly the concentration giving half of the maximal effect) is roughly 500 pM.
